According to publication PMC7066465:

How the values were obtained:
[1] = target: native allophycocyanin of Agarophyton chilensis, αβ unit (Agarophyton chilensis); assay: SEC; Superdex 200 HiLoad 16/60; oligomer size estimated from a calibration curve of MW standards 1,750-670,000 Da (Bio-Rad gel filtration standard); oligomer of αβ units
[2] = target: recombinant allophycocyanin of Agarophyton chilensis, αβ unit (Agarophyton chilensis); assay: as above

stoichiometry N [1]	stoichiometry N [2]	Substance
3		native allophycocyanin of Agarophyton chilensis, αβ unit (complex)
	3	recombinant allophycocyanin of Agarophyton chilensis, αβ unit (complex)
